Measurements reported in publication PMC4385409.

Molecular target: cytoplasmic dynein-1 heavy chain (bovine) (bovine)
Assay: negative stain EM

**Q.** How did the stoichiometry N turn out when “cytoplasmic dynein-1 heavy chain (bovine) (natural protein)” was run?
**A.** The stoichiometry N was 2.
